From US20220312749A1 (BIOCYTOGEN PHARMACEUTICALS BEIJING, published 2022)

Legend:
Test in all cases: inferred by the filing from p-STAT5 flow cytometry on humanized mouse splenocytes
[1] = biological target: T1, mouse IL2RB (mouse, UniProt P16297 27-539)
T1 construct: whole, on cells; also called CD122
T1 sequence (looked up): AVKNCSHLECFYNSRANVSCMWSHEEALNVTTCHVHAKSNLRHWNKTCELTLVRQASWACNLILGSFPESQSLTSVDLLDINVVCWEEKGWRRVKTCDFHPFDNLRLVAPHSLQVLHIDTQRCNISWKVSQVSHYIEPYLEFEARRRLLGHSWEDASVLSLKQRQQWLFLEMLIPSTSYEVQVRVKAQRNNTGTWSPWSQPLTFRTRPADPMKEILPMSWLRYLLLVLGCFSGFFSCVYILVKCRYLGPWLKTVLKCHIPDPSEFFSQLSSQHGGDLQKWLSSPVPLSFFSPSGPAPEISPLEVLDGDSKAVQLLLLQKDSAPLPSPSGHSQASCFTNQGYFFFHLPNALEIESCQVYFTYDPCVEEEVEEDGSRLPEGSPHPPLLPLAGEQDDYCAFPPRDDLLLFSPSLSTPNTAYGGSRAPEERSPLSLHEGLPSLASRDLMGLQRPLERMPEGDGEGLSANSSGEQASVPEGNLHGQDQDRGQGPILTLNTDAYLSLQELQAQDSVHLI
Description: (§1) p-STAT5 is a known downstream signal in the IL2/IL2RA-mediated signaling pathway. Thus, the level of p-STAT5 in the IL2RA gene humanized mice can be detected to verify whether the IL2/IL2RA signaling pathway is functional in the humanized mice. Spleen cells from 14-week old wild-type C57BL/6 mice and IL2RA gene humanized homozygous mice were isolated (5×10⁵ cells/well, 4 wells each) and incubated in a 37° C. incubator for 30 minutes. […] Then, the stimulated cells were stained by APC Rat Anti-Mouse CD3 Molecular Complex, permeabilized, and stained by Phospho-Stat5 (Tyr694) (D47E7) XP® Rabbit mAb and Anti-rabbit IgG (H+L), F(ab′)2 Fragment (Alexa Fluor® 488 Conjugate), followed by flow cytometry analysis.

[2] = biological target: T2, Mouse recombinant interleukin 2 (mIL2) (mouse, UniProt P04351 21-169)
T2 construct: Bought reagent; also called recombinant mouse IL2; mouse IL2
T2 sequence (looked up): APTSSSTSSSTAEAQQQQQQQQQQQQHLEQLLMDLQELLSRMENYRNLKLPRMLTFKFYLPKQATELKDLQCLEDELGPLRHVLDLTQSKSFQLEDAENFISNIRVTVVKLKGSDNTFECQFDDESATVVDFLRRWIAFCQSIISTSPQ
Description: as §1

[3] = biological target: T3, mouse IL2RG (mouse, UniProt P34902 23-369)
T3 construct: whole, on cells; also called CD132; common gamma chain
T3 sequence (looked up): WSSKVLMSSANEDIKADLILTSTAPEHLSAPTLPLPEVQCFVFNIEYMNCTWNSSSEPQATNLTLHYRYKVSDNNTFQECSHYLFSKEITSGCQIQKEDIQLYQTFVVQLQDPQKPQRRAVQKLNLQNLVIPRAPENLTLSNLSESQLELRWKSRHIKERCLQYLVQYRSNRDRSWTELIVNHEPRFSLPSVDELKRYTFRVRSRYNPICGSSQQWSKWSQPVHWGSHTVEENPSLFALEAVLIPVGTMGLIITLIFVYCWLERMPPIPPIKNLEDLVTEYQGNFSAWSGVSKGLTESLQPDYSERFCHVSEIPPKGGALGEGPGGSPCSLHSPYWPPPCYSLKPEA
Description: as §1

Measured: binding result

B1: humanized IL2RA protein (chimeric human/mouse IL2RA expressed by B-hIL2RA mice) (receptor)
chain: ELCDDDPPEIPHATFKAMAYKEGTMLNCECKRGFRRIKSGSLYMLCTGNSSHSSWDNQCQCTSSATRNTTKQVTPQPEEQKERKTTEMQSPMQPVDQASLPGHCREPPPWENEATERIYHFVVGQMVYYQCVQGYRALHRGPAESVCKMTHGKTRWTQPQLICTGEMETSQFPGEEKPQASPEGRPESETSCLVTTTDFQIQTEMAATMETSIFTTEYKVAVASCLFLLISILLLSGLTWQHRWRKSRRTI
notes: also called chimeric IL2RA; engineered mouse IL2RA after humanization
binds: all assays above
